Laboratory results from the nanobody polyreactivity screen of Harvey et al. (2022).

Experiment: yeast display, Sf9 membrane polyspecificity reagent, FACS + sequencing; frameworks hold sequencing errors
Summary of the method: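 A nanobody's polyreactivity label depends on the gate it was sorted from. Yeast display cells were stained with 10% biotinylated, detergent-solubilized Sf9 membrane reagent for 1 hour at 4 °C, enriched on streptavidin microbeads and sorted by FACS. The low and high (top ~1%) gates were set on anti-HA fluorescence for expression and streptavidin fluorescence for reagent binding.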

Sequence | polyreactivity (PSR sort gate)
QVQLVESGGGLVQAGGSLRLSCAASGSIFSFYAMGGYRQPPGKEREFVATITYGSGSTHYADSVKGRFTISRDNAKITVYLQLNSLKPEDTAVYYCAAETVRYEWGESPAALFDYWGQGTQVTVSS | low polyreactivity
QVQLVESGGGLVQAGGSLRLSCAASGRTFGKYAMGWYRQAPGKERELVASITFSSGSTYYADSVKGRFTISRDNAKNTVYLQMNSLKPEDTAVYYCAKRGWGIYDYWGQGTQVTVSS | low polyreactivity
QVQLLESGGGLVQAGGSLRLSCAASGFTFYLYTMGWYRQATGKERELVAAISRSGDRTYYADSVKGRFTISRDNAKNNVYLQMNSLKPEDTAVYYCAARSYRPTRGDYWGQGTQVTVST | high polyreactivity
QVQLVESGGGLVQAGGSLRLSCDASGPIFAWNGMGWYRPAPGKERELVAVITSGGNTNYADSVKGRFTFSLDNAKNTVFIQMNSLKPEDTAVYDCATKGYAKRTRFWSHYDYWGQGTQVNVSS | high polyreactivity
QVQLVESGGGLVQAGGSLRLSCAASGFIFRSYAMGWYRQAPGKERELVAAITRSGGSTYYADSVKGRFTISRDNAKNTDYLQMNSLKPEDTAVYYCATRRYWYYILDYWGQGTQVTVSS | high polyreactivity
QVQLVESGGGLVQAGGSLRLSCAASGTFSFYALGWYRHAPGKERELVATIRSGGRTYYADSVKGRFTISRDTAKNTVYLQMNSLKPEDTAVYYCAKTGFLGLRQYGYWGQGTQVTVSS | high polyreactivity
QVQLVESGGGLVQAGGSLRLSCAASGSIFRGYAMGWYRQAPGKERELVAAINWSGSSTYYADSVKGRFTISRDNAKNTVYLQMYSMKPEDSAVYYCALVYYNRNLGGDYWGQGTQVTVSS | low polyreactivity
QVQLVESGGGLVQAGGSLRLSCAASGYTFWWYAMGWSRQAPGKERELVAAISIGGSTKYADSVKGRFTISRDNAKNTVYLQMNSLKPEDTAVYYCAAEVSYHYVPYGYWGQGTQVTVSS | low polyreactivity
QVQLVESGGGLVQAGGSLRLSCADTGRIFTRYAMGWYRQAPGKERELVASIRSGGSTYYADSVKGRFTISRDNAKNTVYLQMNSLKPEDTAVYFCAKGTFDLHYRKRYNYWGQGTQVTVSS | low polyreactivity
QVQLVESGGGLVQAGGSLRLSCAASGYTFATKVMGWYRQAPGKERELVATITGSGGSTYYADSVKGRLTISRDNAKNTVYLQMNSLTPEDTAVYNCAARLYGWYYGGYTRYDYWGQGTQVTVSS | high polyreactivity
QVQLVESCGGLVQAGGSLRLSCAPSGSTIPPNAMGWNRQAPRQERELVADSSDSSTSYADSVKGRFSISRDNAKNTVYLQMKSQKPEDTAVYYCAAADAGLRSKSYGQQYDYWGQGTQVTVSS | low polyreactivity
QVQLVESGGGLVQAGGSLRLSCAASGRIFSLYAMGWYRQAPGKERELVAVITYRGGDSTYYADSVKGRFTISRDNAKNTVYLQMNSLKPEDTAVYYCAAGQPLYQRRHSSRTYYYWGQGTQVTVSS | high polyreactivity
QVQLVESGGGLVQAGGSLRLSCAASGFTFPRYAMVWYRQAPGKERELVAAINRGGSTYYADSVKGRFTISRDNAKNTVYLQMNSLKPEDTAVYYCARARPVDTVGYVTVSGDYEFDYWGQGTQVTVSS | low polyreactivity
QVQLVESGGGLVQAGGSLRLSCAASGLIFGRYAMGWYRQAPGKERELVAAISSSGVRTYYADSVKGRFTISRDNAKNTVYLQMNSLKPEDTAVYYCAAAYWSSREDTVIKRYYWGQGTQVTVSS | high polyreactivity
HVQLVESGGGLVQAGGSLRLSCAASGLIFSAYAMGWYRQAPGKEREFVAAISRSGGITFYADSVKGRFTISRDNAKNTVYLQMNSLKPEDTAVYYCAARLYKYRRGGGYFWGQGTKVTVSS | high polyreactivity
QVQLVESGGGLVQAGGSLRLSCAASGITFGFNAMGWNRQAPGKERELVAAITWSVGRTYYADSVKGRFTISRDNAKNTVYLQMNSLKPEDTAVYYCAKDFEAGDDYFAYDYWGQGTQVTVSS | low polyreactivity
QGQLVESGGGLVQAGGSLRLSCAASGLIFVWYAMGWYRQARGKERELVAAISWSGGSTYYADSVKGRFTISRDNAKNTVYLQMNSLKPEDTAVYYCATDPYGYSYLLVDYNYWGQGTQVTVSS | low polyreactivity
QVQLVESGGGLVQAGGSLRLSCAASGFTLKSYAMGWYRQAPGKERELVASISRRGGSTYYADSVKGRFTISRDNAKNTVYLQMNSLKPEDTAVYYCNADYVRYPGNAYDYWGQGTQVTVSS | high polyreactivity
QVQLVESRGGLVQAGGSLRLSCAASGSIFYSNFMGWYRPAPGKERELVARITDAGSTNYADSVKGRFTISRDNAKNTVYLQMNSQKPEDTAVYYCNARLVIYTYDYWGQGTQVTVSS | low polyreactivity
LVQLVESGGGLVQAGGSLRLSCAASGGTIVYYTMGWYRHAPGKERELVATIDNSDGSTYYADSVKGRFTISRDNAKNTVDLQMNSLKPEDTPVYYCSKSLPHSTSRDYWGQGTQLTVSS | low polyreactivity
QVHLVESGGGLVQAGGSLRLSCAASGSIFSYYAMGWYRQAPGKERELVASITYSGGSTYYADSVKGRFTISRDNAKNTVYLQMNSLKPEDTAVYYCNTDWRTSVGYDYWGQGTQVTVSS | low polyreactivity
QVQLVESGGGLVQAGGSLRLSCAASGFIFLPYAMGWYRQAPGKERELVAAITRGGRTYYADSVKGRFTISRDNAKNTVYLKMNSLKPEDTAVYYCAATTYLVWGYNYWGQGTQVTVSS | low polyreactivity

Sequence | polyreactivity (PSR sort gate)
QVQLVESGGGLVQAGGTLRLSCAASGLIFFFYAMGWYRQAPGKERELVAAISDDGVSTDYADSVKGRFTISRDNAKNTVYLQMNSLKPEDTAVYYCAAKTERVYPWFSFGYWGQGTQVTVSS | low polyreactivity
QVQLVESGGGLVQAGGSLRLSCAASGFIFVDYAMGWYRQAPGTERELVAAITSSGDRTYYADSVKGRFTISRDNAKNTVYLQMNSLKPEDTAVYYCNADWSTAWYTSYDYWGQGTQVTVSS | low polyreactivity
QDQLVESGGGLVQAGGSLRLSCAPSGRTFYSYAMGWYRQAPGKERELVATIDSGGRTNYADSVKGRFTISRDNAKNTVYLQMNSLKPEDTAVYYCAASVWNWYFGIRYDYWGQGTQVTVSS | high polyreactivity
QVQLVESGGGLVQAGGSLRLSCAASGSIFPDYAMGWYRQAPGKERELVAAITWRDDSTYFADSVKGRFTISRDNAKNTVYLQMNSLKPEDTAVYYCNASALDPLYAKDEYWGQGTQVTVSS | low polyreactivity
QVQLVESGGGLVQAGGSLRLSCAASGSTFVPYAMGWYRQAPGKERELVAAISGTGGRTSYADSVKGRFTISRDNAKNTVYLQMNSLKPEDTAVYYCAAADGIYARYFFSRFPRFDYWGQGTQVTVSS | low polyreactivity
QDQLVESGGGLVQAGGSHRLSCAASGSTFLGNTMGWYRQAPRKERELVAAISSSGTSTYYADSVKGRFTISRDNAKNTVYLQMNSLKPEDTAVYYCAAVIRVWWGFGDKYDYWGQGTQVTVAS | high polyreactivity
QVQLVESGGGLVQAGGSLRLSCAASGSIFGEYAMGWYRQAPGKERELVAGITSDGSTNYADSVKGRFTISRDNAKNTVYLQMNSLKQEDTAVYYCAAAGYVYHWAPRGSRYYYWGQGTQVTVSS | low polyreactivity
QVQLVESGGGLVQAGGSLRLSCAASGSTFGLNAMGWYRQAPGKERELVAAITRSDITNYADSVKGRFTISRDNAKNTVYLQMNSLKPEDTAVDYCAARGLWPYDYWGQGTQVTVSS | low polyreactivity
QVQLVESGGGLVQAGGSLRLSCAASGSIITSYTMGWYRQAPGKERELVAAISRSGGSTYYADSVKGRFTISRDNAKNTVYLQMNSLKPEDTAVYYCAARQSKLRRETPNDYWGQGTQVTVSS | high polyreactivity
QDQLVESGGGLDQAGGSLRLSCAASGFTFYNYAMGWYRQAPGKERELVAAISWNGGSTYYADSVKGRFTISRDNAKNTVYLQMNSLKPEDTAVYYCNADISQRTRGYYYVWWSRMDYWGQGTQVTVSS | low polyreactivity
QVQLVESGGGLVQAGGSLRLSCAASGRIFTRYAMGWYRQAPGKERELVAVITRSGGSTYYADSVKGRFTISRDNAKNTVYLQMNSLKPEDTAVYYCAAKYYGEMYYWGQGTQVTVSS | low polyreactivity
QVQLVESGGGLVQAGGSLRLSCAASGSIFDVNAMGWYRQAPGKERELVAAITWSGGITYYADSVKGRFTISRDNAKNTVYLQMNSLKPEDTAVYYCNVYVTAGEEDEYWGQGTQVTVSS | low polyreactivity
QVQLVESGGGLVQAGGSLRLSCAASGSIFGYYAMGWYRQAPGKERELVAAISWSGGSTYYADSVKGRFTISRDTAKNTVYLQMNSLKPEDTAVYYCAATSRGNDSQKYYYWGQGTQVTVSS | low polyreactivity
QVQLVESGGGLVQAGGSLRLSCAASGRIFGVYTMGWSRQAPGKERELVAAITSGGNTNYADSVKGRFTISRDNAKNNVYLQMNSLKPEDTAVYYCAARSVRNFYYPGHNYRGQGTQVTVSS | low polyreactivity
QVQLVESGGGLVQAGGSLRLSCAASGIILYYNALGWYRQAPGKERELLAAITTSGVSTYDADSVKGRFTISRDNAKNTVYLQMKSLKPEDTAVYYCNARARARYFYEMDYWGQGTQVTVSS | low polyreactivity
QVQLVESGGGLVQAGGSLRLSCAASGLTFHAYAMGWYRQPPGKEREFVAAITRSGSSTSYADSVKGRFTISRDNAKNTVYLQMNSLKPEDTAVYYCAAQGSRKYRNDYWGQGTQVTVSS | high polyreactivity
QVQLVESGGGLVQAGGSLRLSCAASGYIFDRYAMGWYRQAPGKERELVAAISSDGSTYYADSVKGRFTISRDNAKNTVYLQMNSLKPEDTAVYYCAADGGESAWGGYDYWGQGTQVTVSS | low polyreactivity
QVQLVESGGGLVQAGGSLRLSCAASGSIFSPNAMGWNRQAPGKERELVAAISRRGGRTYYADSVKGRFTISRDNAKNTVYFQMNSLKPEDTAVYYCNAVWYSDTYTNPQYDYWGQGTQVTVSS | high polyreactivity
QVQLVESGGGLVQAGGSLRLTCAASGSNFVYNAMGWYRQAPGKERELVAAISSRGGSTYYADSVKGRFTISRDNAKNTVYLQMKSLKPEDTAVYYCNAYGPRAYRGGSWGQGTQVTVSS | high polyreactivity
QVQLVESGGGLVQAGGSLRLSWAASGITFDLYAMGWYRPAPGKEREFVATISWTGGTTYYADSVKGRFTISRDNAKNTVDLQMISLKPEVPAASYCNKGSDFFWYDYDYCGQGTQVTVSS | low polyreactivity
QVQLVESGGGLVQAGGSLRLSCAASGSPFYNYAMGWYRQAPGKERELVAAIRNGGGTNYADSVKGRFTISRDNAKNTVYLQMNSLKPEDTAVYDCNKAYGVSGTGVDYWGQGTQVTVSS | low polyreactivity
